Data set [1] has as its system HEK293 cells overexpressing the ghrelin receptor. The data set can be described thus: Fluorescence microscopy of cell permeability. To be noted: 5 μM, 3 h 45 min, 37° C. The format is cell-based, human. How it is done: To visualise cell-penetration of the peptides, HEK293 1C8 cells were seeded in 12-well plates, covered with a coverslip, at 120,000 cells/well. After overnight incubation (37° C., 5% CO2), cells were washed with PBS and treated with the fluorescently labeled peptides for 2 h45. Next, BG-fluorescein was added to the mixture, for Snap tag labeling of the cell-surface GHSR. After incubation of 1 h the cells were washed four times with PBS. Cells were then fixed using 4% paraformaldehyde in PBS for 5 min and washed two times with PBS. Finally, Hoechst was diluted 1/1000 in PBS, added to the fixed cells during 10 min, and washed thrice with PBS.
The cells for permeabilization were first incubated with BG-fluorescein during 1 h, followed by four times washing with PBS. The cells were then fixed with 4% paraformaldehyde in PBS for 5 min washed twice. Afterwards, the cells were permeabilized with Triton 0.1% in PBS during 5 min and washed thrice. Finally, the cells were incubated for 3 h 45 with the peptide and washed three times before Hoechst was added for 10 min.
The SulfoCy5-labeled Gq/11 peptidomimetics of Example 5 were also analyzed by fluorescence microscopy to investigate their cell membrane permeability. HEK293 cells overexpressing the ghrelin receptor were seeded overnight on microscope slides. The cells were incubated with 5 μM of SulfoCy5-labeled Gq/11 peptidomimetics for 3 h 45 min at 37° C., followed by Hoechst staining for visualizing the nucleus. The cell membrane was visualized by staining the cell surface ghrelin receptors with fluorescein.

The next data set in a line: MTT cytotoxicity assay. As to conditions: human, HEK293 1C8 cells, 3 h 45 min, read-out: cell viability. The format is cell-based, human. How it is done:
Cells were washed two times with PBS and incubated with 3-(4,5-dimethylthiazol-2-yl)-2,5-diphenyltetrazolium bromide (MTT) during 3 h, at 37° C. Afterwards, cells were washed once with PBS and then incubated for 10 min with DMSO. Plates were analysed with a Tecan Spark 10 M microplate reader.
An MTT assay was used to assess the cytotoxicity of the non-fluorescent Gq/11 peptidomimetics of Example 5. An MTT assay is a colorimetric test that evaluates the cell metabolic activity and reflects the cell viability.

Data set [2] deals with purified bimane labeled ghrelin receptor (human, cysmin mutant, in lipidated nanodiscs) (human) (UniProt Q92847). The experiment in a line: cell-based or functional assay.
Chain of purified bimane labeled ghrelin receptor (human, cysmin mutant, in lipidated nanodiscs) (human) (Q92847 other isoform, or with tags, fused parts or gaps mutant): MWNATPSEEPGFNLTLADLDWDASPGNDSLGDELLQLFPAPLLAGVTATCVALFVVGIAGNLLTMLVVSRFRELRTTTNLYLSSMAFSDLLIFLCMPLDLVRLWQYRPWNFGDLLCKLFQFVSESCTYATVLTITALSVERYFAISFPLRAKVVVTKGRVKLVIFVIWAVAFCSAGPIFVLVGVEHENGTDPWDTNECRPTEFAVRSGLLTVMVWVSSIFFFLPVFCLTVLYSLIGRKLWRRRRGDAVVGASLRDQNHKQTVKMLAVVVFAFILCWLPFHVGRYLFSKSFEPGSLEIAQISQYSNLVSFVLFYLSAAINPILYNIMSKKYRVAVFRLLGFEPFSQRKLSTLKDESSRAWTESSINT
Data set [3] concerns the target T1, ghrelin receptor overexpressed on HEK293 cells (UniProt Q92847 1-366, limits assumed). The experiment in a line: cell-based or functional assay.
Data set [4] addresses T1, ghrelin receptor overexpressed on …. The experiment in a line: cell-based or functional assay. The source holds these as a separate data set.
The target of data set [5] is T2, full-length human muscarinic 1 receptor with a FLAG tag at the N-terminus (human, UniProt P11229 1-460).
T2 sequence: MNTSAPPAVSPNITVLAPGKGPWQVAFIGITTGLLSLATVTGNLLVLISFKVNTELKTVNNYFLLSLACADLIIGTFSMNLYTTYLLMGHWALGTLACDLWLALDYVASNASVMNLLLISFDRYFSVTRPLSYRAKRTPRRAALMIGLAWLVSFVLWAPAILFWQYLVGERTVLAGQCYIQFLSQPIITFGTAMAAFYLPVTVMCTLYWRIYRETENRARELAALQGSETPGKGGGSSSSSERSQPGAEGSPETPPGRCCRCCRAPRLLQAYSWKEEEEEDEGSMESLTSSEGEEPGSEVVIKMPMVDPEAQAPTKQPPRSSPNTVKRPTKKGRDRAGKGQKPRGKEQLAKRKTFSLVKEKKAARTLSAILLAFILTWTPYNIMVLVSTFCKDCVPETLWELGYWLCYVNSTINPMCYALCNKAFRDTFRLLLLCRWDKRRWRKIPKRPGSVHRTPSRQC
The experiment in a line: cell-based or functional assay.

Positions of bridges follow the written chain, without caps; N, C: chain ends. Non-standard residues stand in square brackets, D forms with d. Residues, ends and D or L forms follow the SMILES beside them. Triazole bridges read from a SMILES are 1,4-linked. Lys(N3) = [N-]=[N+]=NCCCC[C@H](N)C(=O)O; Cha = N[C@@H](CC1CCCCC1)C(=O)O; Pra = C#CC[C@H](N)C(=O)O

T1 sequence (Q92847 whole entry): as the sequence (Q92847 other isoform, or with tags, fused parts or gaps mutant) above, with S146C, S304C counted along it

Consider “H-C(SulfoCy5)-Ahx-RRRRRRRRFAc[PraVKDAzk]ILQLNLKEYNLV-OH [SBL-GQ-23]”, for which the “SulfoCy5-labeled peptide observed inside cells” value in data set [1] is listed as “entered cells”.
The same measure, in the same setting: as for “H-C(SulfoCy5)-Ahx-KKKFAc[PraVKDAzk]ILQLNLKEYNLV-OH [SBL-GQ-21]”, the entry is “very little or no”; as for “H-C(SulfoCy5)-Ahx-RRWWRRWRRFAc[PraVKDAzk]ILQLNLKEYNLV-OH [SBL-GQ-24]”, “entered cells”.
For orientation: viability means a per cent measure of how many cells are alive, often set against a control. As to `CC[C@H](C)[C@H](NC(=O)[C@@H]1CCCCn2cc(nn2)C[C@H](NC(=O)[C@H](C)NC(=O)[C@H](Cc2ccccc2)NC(=O)[C@H](CCCNC(=N)N)NC(=O)[C@H](CCCNC(=N)N)NC(=O)[C@H](CCCNC(=N)N)NC(=O)[C@H](CCCNC(=N)N)NC(=O)[C@H](CCCNC(=N)N)NC(=O)[C@H](CCCNC(=N)N)NC(=O)[C@H](CCCNC(=N)N)NC(=O)[C@@H](N)CCCNC(=N)N)C(=O)N[C@@H](C(C)C)C(=O)N[C@@H](CCCCN)C(=O)N[C@@H](CC(=O)O)C(=O)N1)C(=O)N[C@@H](CC(C)C)C(=O)N[C@@H](CCC(N)=O)C(=O)N[C@@H](CC(C)C)C(=O)N[C@@H](CC(N)=O)C(=O)N[C@@H](CC(C)C)C(=O)N[C@@H](CCCCN)C(=O)N[C@@H](CCC(=O)O)C(=O)N[C@@H](Cc1ccc(O)cc1)C(=O)N[C@@H](CC(N)=O)C(=O)N[C@@H](CC(C)C)C(=O)N[C@H](C(=O)O)C(C)C` [SBL-GQ-15] (H-RRRRRRRRFA[Pra]VKD[Lys(N3)]ILQLNLKEYNLV-OH; triazole 11-15), in the data set “MTT cytotoxicity assay”, the viability at 5 µM was roughly 90%, the viability at 10 µM was roughly 70% and the viability at 40 µM was roughly 50%.
Take “H-C(SulfoCy5)-Ahx-RRRRFAc[PraVKDAzk]ILQLNLKEYNLV-OH [SBL-GQ-22]”: the “SulfoCy5-labeled peptide observed inside cells” value in data set [1] is listed as “very little or no”.
Turning to dynorphin [reference compound], the “SulfoCy5-labeled peptide observed inside cells” value in data set [1] is listed as “very little or no”.
In the case of `CC[C@H](C)[C@H](NC(=O)[C@@H]1CCCCn2cc(nn2)C[C@H](NC(=O)[C@H](C)NC(=O)[C@H](Cc2ccccc2)NC(=O)[C@H](CCCNC(=N)N)NC(=O)[C@H](CCCNC(=N)N)NC(=O)[C@H](Cc2c[nH]c3ccccc23)NC(=O)[C@H](CCCNC(=N)N)NC(=O)[C@H](CCCNC(=N)N)NC(=O)[C@H](Cc2c[nH]c3ccccc23)NC(=O)[C@H](Cc2c[nH]c3ccccc23)NC(=O)[C@H](CCCNC(=N)N)NC(=O)[C@@H](N)CCCNC(=N)N)C(=O)N[C@@H](C(C)C)C(=O)N[C@@H](CCCCN)C(=O)N[C@@H](CC(=O)O)C(=O)N1)C(=O)N[C@@H](CC(C)C)C(=O)N[C@@H](CCC(N)=O)C(=O)N[C@@H](CC(C)C)C(=O)N[C@@H](CC(N)=O)C(=O)N[C@@H](CC(C)C)C(=O)N[C@@H](CCCCN)C(=O)N[C@@H](CCC(=O)O)C(=O)N[C@@H](Cc1ccc(O)cc1)C(=O)N[C@@H](CC(N)=O)C(=O)N[C@@H](CC(C)C)C(=O)N[C@H](C(=O)O)C(C)C` [SBL-GQ-25] (H-RRWWRRWRRFA[Pra]VKD[Lys(N3)]ILQLNLKEYNLV-OH; triazole 12-16), in the data set “MTT cytotoxicity assay”, the viability at 5 µM is roughly 90%, the viability at 10 µM was roughly 85% and the viability at 40 µM was roughly 50%.
For the molecule purified Gαqβ1γ2 heterotrimer, in data set [2], the bimane maximum emission wavelength, with agonist JMV1843 came to 480 nm.

B1: SBL-GQ-04 (peptide)
peptide: Ac-KKKFAAVKDTILQLNLKEYN[Cha]V-OH
SMILES: CC[C@H](C)[C@H](NC(=O)[C@@H](NC(=O)[C@H](CC(=O)O)NC(=O)[C@H](CCCCN)NC(=O)[C@@H](NC(=O)[C@H](C)NC(=O)[C@H](C)NC(=O)[C@H](Cc1ccccc1)NC(=O)[C@H](CCCCN)NC(=O)[C@H](CCCCN)NC(=O)[C@H](CCCCN)NC(C)=O)C(C)C)[C@@H](C)O)C(=O)N[C@@H](CC(C)C)C(=O)N[C@@H](CCC(N)=O)C(=O)N[C@@H](CC(C)C)C(=O)N[C@@H](CC(N)=O)C(=O)N[C@@H](CC(C)C)C(=O)N[C@@H](CCCCN)C(=O)N[C@@H](CCC(=O)O)C(=O)N[C@@H](Cc1ccc(O)cc1)C(=O)N[C@@H](CC(N)=O)C(=O)N[C@@H](CC1CCCCC1)C(=O)N[C@H](C(=O)O)C(C)C
B1: in data set [3], the “EC50 (M) of the MK0677 agonist, IP-One Gq assay, SBL-GQ-04 5 µM, n = 1” value stood at 3.18e-10 M and the “EC50 (M) of the MK0677 agonist, IP-One Gq assay, SBL-GQ-04 5 µM, n = 2” value was 1.41e-10 M. Further, in data set [4], the “EC50 (M) of the MK0677 agonist, IP-One Gq assay, peptidomimetic at 10 µM, n = 1” value (“EC50 (M) of the MK0677 agonist … at 10 µM, n = 1” below) was determined as 4.42e-10 M; the “EC50 (M) of the MK0677 agonist, IP-One Gq assay, peptidomimetic at 10 µM, n = 2” value (from here on “EC50 (M) of the MK0677 agonist … at 10 µM, n = 2”) was determined as 9.46e-11 M; the “EC50 (M) of the MK0677 agonist, IP-One Gq assay, peptidomimetic at 10 µM, n = 3” value (shortened to “EC50 (M) of the MK0677 agonist … n = 3”) was 9.87e-11 M. Moreover, in data set [5], the “IC50 (µM) of the agonist acetylcholine chloride for the M1 receptor in the presence of the peptidomimetic, RLA” value (from here on “IC50 (µM)”) was found to be 213 µM and the “Shift (IC50 ratio without/with peptidomimetic), RLA” value is 4.
As for H-RRWWRRWRRFA[Pra]VKD[Lys(N3)]ILQLNLKEYNLV-OH (triazole 12-16) [SBL-GQ-25], in data set [3], the “EC50 (M) of the MK0677 agonist, IP-One Gq assay, SBL-GQ-25 5 µM, n = 1” value came out at 7.82e-10 M; the “EC50 (M) of the MK0677 agonist, IP-One Gq assay, SBL-GQ-25 5 µM, n = 2” value turned out to be 1.7e-10 M; the “EC50 (M) of the MK0677 agonist, IP-One Gq assay, SBL-GQ-25 10 µM, n = 1” value came out at 1.54e-09 M; the “EC50 (M) of the MK0677 agonist, IP-One Gq assay, SBL-GQ-25 10 µM, n = 2” value was determined as 4.65e-10 M.
Take Ac-KKKFA[Pra]VKD[Lys(N3)]ILQLNLKEYNLV-OH (triazole 6-10) [SBL-GQ-05]: in data set [4], the “EC50 (M) of the MK0677 agonist … at 10 µM, n = 1” value was determined as 9.99e-10 M; the “EC50 (M) of the MK0677 agonist … at 10 µM, n = 2” value amounted to 1.53e-10 M; the “EC50 (M) of the MK0677 agonist … n = 3” value is 1.1e-10 M. In data set [2], this molecule registered a bimane emission as percent of the effect of the Gq protein, highest peptide concentrations of 90% and a bimane maximum emission wavelength, with agonist JMV1843 of 478 nm. Besides, in data set [5], the “IC50 (µM)” value came out at 330 µM and the “Shift (IC50 ratio without/with peptidomimetic), RLA” value was found to be 1.
Take Ac-KKKFA[Pra]VKD[Lys(N3)]ILQLNLKEYN[Cha]V-OH (triazole 6-10) [SBL-GQ-06]: the bimane maximum emission wavelength, with agonist JMV1843 in data set [2] amounted to 478 nm. Further, in data set [5], the “IC50 (µM)” value amounted to 54.4 µM and the “Shift (IC50 ratio without/with peptidomimetic), RLA” value is 8.
In turn, Ac-KKKFN[Pra]CKD[Lys(N3)]ILQMNLREYNLV-OH (triazole 6-10) [SBL-GQ-11] displayed a bimane maximum emission wavelength, with agonist JMV1843 in data set [2] of 478 nm. In data set [5], the “IC50 (µM)” value stood at 57.7 µM and the “Shift (IC50 ratio without/with peptidomimetic), RLA” value was 7.
Molecule Ac-KKKFN[Pra]CKD[Lys(N3)]ILQMNLREYN[Cha]V-OH (triazole 6-10) [SBL-GQ-12] yielded a bimane maximum emission wavelength, with agonist JMV1843 in data set [2] of 478 nm. In addition, in data set [5], the “IC50 (µM)” value stood at 13.7 µM and the “Shift (IC50 ratio without/with peptidomimetic), RLA” value is 34.
With H-RRRRRRRRFA[Pra]VKD[Lys(N3)]ILQLNLKEYNLV-OH (triazole 11-15) [SBL-GQ-15], in data set [3], the “EC50 (M) of the MK0677 agonist, IP-One Gq assay, SBL-GQ-15 5 µM, n = 1” value came out at 2.55e-10 M and the “EC50 (M) of the MK0677 agonist, IP-One Gq assay, SBL-GQ-15 5 µM, n = 2” value amounted to 8.07e-11 M. Besides, in data set [4], the “EC50 (M) of the MK0677 agonist … at 10 µM, n = 1” value was found to be 2.75e-10 M; the “EC50 (M) of the MK0677 agonist … at 10 µM, n = 2” value amounted to 1.07e-10 M; the “EC50 (M) of the MK0677 agonist … n = 3” value is 7.18e-11 M.

The record behind these values is patent US20260242759A1, “GQ/11 Protein Peptidomimetics” (Vrije Universiteit Brussel, priority 2022, published 2026).
